The text below walks through data of patent US20160145343A1.

Test [1] has as its target Normal MUC1 on non-transformed MCF-10A cells and on normal tissue (human) (UniProt P15941). The experiment in a line: immunohistochemistry, colon tissue microarray.
The target is the same in test [2]. As to the kind of experiment: immunohistochemistry, colon tissue microarray, normal samples.
Test [3] has the same target. As to the kind of experiment: flow cytometry, MCF10a cells, secondary antibody only. A general note: A flow cytometer gives signals particle by particle.
For test [4] the target is unchanged. The experiment in a line: flow cytometry, MCF10a cells.
The target in the next test is BSA (UniProt P02769). The experiment in a line: ELISA on coated BSA, antibody 0.01 mg/ml, mean of 3.
The target of another test is Synthetic peptide (…)2. As to the kind of experiment: ELISA on coated peptide, antibody 0.01 mg/ml, mean of 3. Background: In an ELISA, binding on a coated surface is turned into a signal by an enzyme label.
In test [5] the target is Synthetic peptide …. The test is described as above.
Test [6] concerns the target SEQ ID NO: 346 glycopeptide with TF-antigen at Ser5. The experiment in a line: ELISA on coated glycopeptide, antibody 0.01 mg/ml, mean of 3.
Test [7] concerns the target SEQ ID NO: 346 glycopeptide with TF-antigen at Thr16. The description is as above.
In test [8] the target is SEQ ID NO: 346 glycopeptide with TF-antigen at Thr4 and Thr9. Described as above.
The target in test [9] is SEQ ID NO: 346 glycopeptide with TF-antigen at Thr4. The description is as above.
Test [10] concerns the target SEQ ID NO: 346 glycopeptide with TF-antigen at Thr9. The test is described as above.
Test [11] has as its target SEQ ID NO: 346 glycopeptide with Tn-antigen at Thr4, Thr9 and Thr16. The test is described as above.

Chain of Synthetic peptide (…)2 (peptide, as listed by the source): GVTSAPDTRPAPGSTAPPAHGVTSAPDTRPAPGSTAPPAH
Chain of BSA (P02769 25-607 limits assumed): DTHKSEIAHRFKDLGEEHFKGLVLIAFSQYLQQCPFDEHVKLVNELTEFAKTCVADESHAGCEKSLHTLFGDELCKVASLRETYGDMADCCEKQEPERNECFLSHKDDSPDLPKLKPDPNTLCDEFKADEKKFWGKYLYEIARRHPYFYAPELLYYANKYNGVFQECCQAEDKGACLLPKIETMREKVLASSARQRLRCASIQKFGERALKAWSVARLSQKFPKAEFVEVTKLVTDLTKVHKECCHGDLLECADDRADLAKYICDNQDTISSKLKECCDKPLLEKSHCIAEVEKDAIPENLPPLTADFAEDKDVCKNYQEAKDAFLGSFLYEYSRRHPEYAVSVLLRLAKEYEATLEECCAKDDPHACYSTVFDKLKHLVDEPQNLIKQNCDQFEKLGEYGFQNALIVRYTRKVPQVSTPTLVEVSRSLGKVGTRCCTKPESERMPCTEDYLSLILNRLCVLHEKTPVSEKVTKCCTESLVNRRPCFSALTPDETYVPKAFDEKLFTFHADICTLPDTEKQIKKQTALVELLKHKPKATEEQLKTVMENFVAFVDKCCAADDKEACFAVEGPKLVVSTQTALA

Substance “HMPV (BD Biosciences), mouse anti-MUC1 antibody” returned a samples MUC1+ by staining (of 6 normal samples) in [1] of 3. The substance also registered an MUC1+ samples stained (of 3 MUC1+ normal samples) in test [2] of 3.
Turning to “Hu-2nd. (APC-labeled secondary antibody only control for the human antibodies)”, the percentage of APC+ stained cells in test [3] turned out to be 0.25%.
Still for that read-out and setting: as for “M-2nd. (APC-labeled secondary antibody only control for the mouse antibodies)”, the figure is 0.6%.
“VU-3C6 (Abcam), mouse anti-MUC1 antibody” showed a percentage of APC+ stained cells in test [4] of 99.2%. The ELISA absorbance at 450 nm worked out at 0.2 absorbance in the test with BSA; 2.3 absorbance with Synthetic peptide (…)2; 1.5 absorbance in [5]; 2 absorbance in test [6]; 1.5 absorbance in [7]; 2.4 absorbance in test [8]. The ELISA absorbance at 450 nm in test [9] is 2 absorbance; in test [10], 2.4 absorbance; in test [11], 2.4 absorbance.
The substance “VU-4H5 (Abnova), mouse anti-MUC1 antibody” displayed a percentage of APC+ stained cells in test [4] of 3.85%. In addition, the ELISA absorbance at 450 nm with BSA stood at 0.1 absorbance; with Synthetic peptide (…)2, 2.5 absorbance; in test [5], 1.9 absorbance; in [6] it was 1.8 absorbance; in test [7], 1.9 absorbance; in test [8] it was 0.1 absorbance. Also, the figures for the ELISA absorbance at 450 nm in [9], in [10] and in [11] were 1.8 absorbance, 0.1 absorbance and 0.1 absorbance, respectively.
